# In publication PMC4197010 (Journal of controlled release : official journal of the …, 2014):
# Read-outs that look alike come from different tables or passages of the source.
# T1: chimera leptin receptor (ObR-Fc) (UniProt P48356 22-839)
# T1 sequence (looked up): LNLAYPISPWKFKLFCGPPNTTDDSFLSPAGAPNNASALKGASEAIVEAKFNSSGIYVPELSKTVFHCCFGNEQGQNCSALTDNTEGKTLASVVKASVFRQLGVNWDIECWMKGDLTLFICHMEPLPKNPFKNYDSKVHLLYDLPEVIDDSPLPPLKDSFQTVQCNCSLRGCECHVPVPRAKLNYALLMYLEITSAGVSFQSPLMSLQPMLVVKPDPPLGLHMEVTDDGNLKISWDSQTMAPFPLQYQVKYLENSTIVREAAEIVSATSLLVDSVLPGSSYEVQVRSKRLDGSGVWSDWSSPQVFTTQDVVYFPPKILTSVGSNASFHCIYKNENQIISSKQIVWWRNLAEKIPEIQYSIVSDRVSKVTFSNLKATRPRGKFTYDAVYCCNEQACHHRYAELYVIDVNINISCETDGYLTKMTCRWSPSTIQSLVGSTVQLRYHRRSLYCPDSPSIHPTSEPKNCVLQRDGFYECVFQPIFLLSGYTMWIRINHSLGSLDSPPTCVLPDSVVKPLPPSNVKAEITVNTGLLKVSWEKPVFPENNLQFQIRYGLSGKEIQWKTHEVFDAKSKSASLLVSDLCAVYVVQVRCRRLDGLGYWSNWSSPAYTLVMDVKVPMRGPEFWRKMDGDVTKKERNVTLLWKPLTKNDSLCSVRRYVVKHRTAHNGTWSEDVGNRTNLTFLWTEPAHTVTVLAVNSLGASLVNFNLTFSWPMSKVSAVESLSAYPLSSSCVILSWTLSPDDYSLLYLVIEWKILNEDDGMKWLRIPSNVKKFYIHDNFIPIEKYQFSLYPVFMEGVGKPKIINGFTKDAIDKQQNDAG
# B1: Mouse recombinant leptin (ligand, UniProt P41160 22-167, looked up)
# chain: VPIQKVQDDTKTLIKTIVTRINDISHTQSVSAKQRVTGLDFIPGLHPILSLSKMDQTLAVYQQVLTSLPSQNVLQIANDLENLRDLLHLLAFSKSCSLPQTSGLQKPESLDGVLEASLYSTEVVALSRLQGSLQDILQQLDVSPEC
# Columns and labels:
# [1] = biological target: T1, chimera leptin receptor (ObR-Fc); experiment: SPR
# [2] = biological target: T1, chimera leptin receptor (ObR-Fc); experiment: SPR; remark: listed apart in the source
binder,measurement,setting,value
B1,Kd,[1],0.337 nM
same,Kd,[2],0.1 nM
